This note sets out measurements from publication PMC11107202, “Hypothiocyanous acid reductase is critical for host colonization and infection by Streptococcus pneumoniae” (The Journal of Biological Chemistry, 2024).

In one series the target is T1, Har (Streptococcus pneumoniae, UniProt A0A0H2ZMK9).
T1 construct: gene SPD_1415; full length, 438 residues; E. coli BL21(DE3), pET28a; N-terminal 6-His tag kept for kinetics, cut by HRV-3C for crystals (4-residue scar); motif CXXXXC (C43, C48), K13, K16, H425, E430
Nature of the series: X-ray crystal structure, […] Å. It is filed as binding. The following applies: tag-cleaved Har; 2.4 M sodium malonate pH 7.0, 20 °C.

For a further series, the system named is N#CSO. The series is described as follows: purified protein. The settings on record: 200 μM NADH, 10 nM 6-His-tagged Har, 100 mM sodium phosphate pH 7, 25 °C, HOSCN 1-50 μM.
In series [1] the target is hypothiocyanous acid reductase (Har) (Streptococcus pneumoniae). The series is described as follows: AUC; sedimentation velocity; Har at 2 uM and 20 uM in 20 mM Tris-HCl pH 8.0, 150 mM NaCl; 50,000 rpm, 20 °C; 2DSA and genetic algorithm analysis in UltraScan 4.0.

With `Cc1cc2nc3c(=O)[nH]c(=O)nc-3n(C[C@H](O)[C@H](O)[C@H](O)COP(=O)(O)OP(=O)(O)OC[C@H]3O[C@@H](n4cnc5c(N)ncnc54)[C@H](O)[C@@H]3O)c2cc1C` [FAD], at Har, the “X-ray crystal structure, 1.50 Å” value is “first crystal structure of full-length Har”. For the compound Har (Streptococcus pneumoniae D39), in the series with N#CSO, the Km worked out at 3.8 ± 0.3 µM and the kcat turned out to be 440 ± 10 s⁻¹. “hypothiocyanous acid reductase (Har) (enzyme)” returned a stoichiometry N in series [1] of 2.

As usually defined, the Km is the substrate concentration at which the rate is half of its maximum. One may read the kcat as the maximal rate divided by the concentration of active sites. By stoichiometry N is commonly meant a count of units in the complex or per binding partner.
